B1: 3′C3 PR4 (designed binder)
chain: EVVAATPTSLLISWRHPHFPTRYYRITYGETGGNSPVQEFTVPLQPPTATISGLKPGVDYTITGYAVTMAQNGHALFTPISINYRT
notes: Del 1-8
B2: 4′B3 PR4 (designed binder)
chain: EVVAATPTSLLISWRHPHFPTRYYRITYGETGGNSPVQEFTVPLQPPTATISGLKPGVDYTITGYAVTMAQNNRELLTPISINYRT
notes: Del 1-8
B3: 4F4 PR3 (designed binder)
chain: EVVAATPTSLLISWRHPHFPTRYYRITYGETGGNSPVQEFTVPLQPPTATISGLKPGVDYTITGYAVTLAQNDRELITPISINYRT
notes: Del 1-8
B4: 3′D8 PR4 (designed binder)
chain: EVVAATPTSLLISWRHPHFPTRYYRITYGETGGNSPVQEFTVPLQPPTATISGLKPGVDYTITGYAVTAGPNDHQLFTPISINYRT
notes: Del 1-8
B5: 3′C8 PR4 (designed binder)
chain: EVVAATPTSLLISWRHPHFPTRYYRITYGETGGNSPVQEFTVPLQPPTATISGLKPGVDYTITGYAVTEGLNDHELMIPISINYRT
notes: Del 1-8
B6: 3′F1 PR4 (designed binder)
chain: EVVAATPTSLLISWRHPHFPTRYYRITYGETGGNSPVQEFTVPLQPPTATISGLKPGVDYTITGYAVTVAQDGHFLYTPISINYRT
notes: Del 1-8
B7: 3′D2 PR4 (designed binder)
chain: EVVAATPTSLLISWRHPHFPTRYYRITYGETGGNSPVQEFTVPLQPPTATISGLKPGVDYTITGYAVTVESNGHALFVPISINYRT
notes: Del 1-8
B8: 4B11 PR3 (designed binder)
chain: EVVAATPTSLLISWRHPHFPTRYYRITYGETGGNSPVQEFTVPLQPPTATISGLKPGVDYTITGYAVTVGQNNHELITPISINYRT
notes: Del 1-8
B9: 3′C12 PR4 (designed binder)
chain: EVVAATPTSLLISWRHPHFPTRYYRITYGETGGNSPVQEFTVPLQPPTATISGLKPGVDYTITGYAVTIGPNNHELLTPISINYRT
notes: Del 1-8
B10: 3′G10 PR4 (designed binder)
chain: EVVAATPTSLLISWRHPHFPTRYYRITYGETGGNSPVQEFTVPLQPPTATISGLKPGVDYTITGYAVTLTHNDHELLTPISINYRT
notes: Del 1-8
B11: 3′E1 PR4 (designed binder)
chain: EVVAATPTSLLISWRHPHFPTRYYRITYGETGGNSPVQEFTVPLQPPTATISGLKPGVDYTITGYAVTVAPNGHELFTPISINYRT
notes: Del 1-8
B12: 3′G1 PR4 (designed binder)
chain: EVVAATPTSLLISWRHPHFPTRYYRITYGETGGNSPVQEFTVPLQPPTATISGLKPGVDYTITGYAVTLALNGHELFTPISINYRT
notes: Del 1-8
B13: 3′E11 PR4 (designed binder)
chain: EVVAATPTSLLISWRHPHFPTRYYRITYGETGGNSPVQEFTVPLQPPTATISGLKPGVDYTITGYAVTVGPHDRELLTPISINYRT
notes: Del 1-8
B14: 3′C6 PR4 (designed binder)
chain: EVVAATPTSLLISWRHPHFPTRYYRITYGETGGNSPVQEFTVPLQPPTATISGLKPGVDYTITGYAVTMGPNDRELLTPISINYRT
notes: Del 1-8
B15: 3′F3 PR4 (designed binder)
chain: EVVAATPTSLLISWRHPHFPTRYYRITYGETGGNSPVQEFTVPLQPPTATISGLKPGVDYTITGYAVTLGHNDRELLTPISINYRT
notes: Del 1-8
B16: 3′F6 PR4 (designed binder)
chain: EVVAATPTSLLISWRHPHFPTRYYRITYGETGGNSPVQEFTVPLQPPTATISGLKPGVDYTITGYAVTIEQSGLQLMTPISINYRT
notes: Del 1-8
B17: 3′E5 PR4 (designed binder)
chain: EVVAATPTSLLISWRHPHFPTRYYRITYGETGGNSPVQEFTVPLQPPTATISGLKPGVDYTITGYAVTVAWDGRELFTPISINYRT
notes: Del 1-8
B18: 3′H3 PR4 (designed binder)
chain: EVVAATPTSLLISWRHPHFPTRYYRITYGETGGNSPVQEFTVPLQPPTATISGLKPGVDYTITGYAVTLGLNDRELMTPISINYRT
notes: Del 1-8
B19: 3′H9 PR4 (designed binder)
chain: EVVAATPTSLLISWRHPHFPTRYYRITYGETGGNSPVQEFTVPLQPPTATISGLKPGVDYTITGYAVTHGPYDQVLLTPISINYRT
notes: Del 1-8
B20: 4C9 PR3 (designed binder)
chain: EVVAATPTSLLISWRHPHFPTRYYRITYGETGGNSPVQEFTVPLQPPTATISGLKPGVDYTITGYAVTLAQNDHELLTPISINYRT
notes: Del 1-8
B21: 3′F12 PR4 (designed binder)
chain: EVVAATPTSLLISWRHPHFPTRYYRITYGETGGNSPVQEFTVPLQPPTATISGLKPGVDYTITGYAVTLSQTDHELLTPISINYRT
notes: Del 1-8
B22: 3′H11 PR4 (designed binder)
chain: EVVAATPTSLLISWRHPHFPTRYYRITYGETGGNSPVQEFTVPLQPPTATISGLKPGVDYTITGYAVTLAHNGNELLTPISINYRT
notes: Del 1-8
B23: 3′G7 PR4 (designed binder)
chain: EVVAATPTSLLISWRHPHFPTRYYRITYGETGGNSPVQEFTVPLQPPTATISGLKPGVDYTITGYAVTEGQNDQLLFIPISINYRT
notes: Del 1-8
B24: 3′C5 PR4 (designed binder)
chain: EVVAATPTSLLISWRHPHFPTRYYRITYGETGGNSPVQEFTVPLQPPTATISGLKPGVDYTITGYAVTDAMYGRELMTPISINYRT
notes: Del 1-8
B25: 3′G3 PR4 (designed binder)
chain: EVVAATPTSLLISWRHPHFPTRYYRITYGETGGNSPVQEFTVPLQPPTATISGLKPGVDYTITGYAVTFDQSDHELLTPISINYRT
notes: Del 1-8
B26: 3′E9 PR4 (designed binder)
chain: EVVAATPTSLLISWRHPHFPTRYYRITYGETGGNSPVQEFTVPLQPPTATISGLKPGVDYTITGYAVTVEQDGHVLYIPISINYRT
notes: Del 1-8
B27: 3′D9 PR4 (designed binder)
chain: EVVAATPTSLLISWRHPHFPTRYYRITYGETGGNSPVQEFTVPLQPPTATISGLKPGVDYTITGYAVTGYYNDRELLTPISINYRT
notes: Del 1-8
B28: 3′E3 PR4 (designed binder)
chain: EVVAATPTSLLISWRHPHFPTRYYRITYGETGGNSPVQEFTVPLQPPTATISGLKPGVDYTITGYAVTMAQYGRELLTPISINYRT
notes: Del 1-8
B29: 3′G2 PR4 (designed binder)
chain: EVVAATPTSLLISWRHPHFPTRYYRITYGETGGNSPVQEFTVPLQPPTATISGLKPGVDYTITGYAVTLAQNGHELITPISINYRT
notes: Del 1-8
B30: 3′H1 PR4 (designed binder)
chain: EVVAATPTSLLISWRHPHFPTRYYRITYGETGGNSPVQEFTVPLQPPTATISGLKPGVDYTITGYAVTFAQNDHQLFTPISINYRT
notes: Del 1-8
B31: 3′F2 PR4 (designed binder)
chain: EVVAATPTSLLISWRHPHFPTRYYRITYGETGGNSPVQEFTVPLQPPTATISGLKPGVDYTITGYAVTLGKNDHELLTPISINYRT
notes: Del 1-8
B32: 4′A5 PR4 (designed binder)
chain: EVVAATPTSLLISWRHPHFPTRYYRITYGETGGNSPVQEFTVPLQPPTATISGLKPGVDYTITGYAVTLAQNDHELLTPISINYRT
notes: Del 1-8
B33: 3′H8 PR4 (designed binder)
chain: EVVAATPTSLLISWRHPHFPTRYYRITYGETGGNSPVQEFTVPLQPPTATISGLKPGVDYTITGYAVTVGHNDRELITPISINYRT
notes: Del 1-8
B34: 4H5 PR3 (designed binder)
chain: EVVAATPTSLLISWRHPHFPTRYYRITYGETGGNSPVQEFTVPLQPPTATISGLKPGVDYTITGYAVTVAQNGHELITPISINYRT
notes: Del 1-8
B35: 3′F9 PR4 (designed binder)
chain: EVVAATPTSLLISWRHPHFPTRYYRITYGETGGNSPVQEFTVPLQPPTATISGLKPGVDYTITGYAVTLGPNDRELMTPISINYRT
notes: Del 1-8
B36: 3′H10 PR4 (designed binder)
chain: EVVAATPTSLLISWRHPHFPTRYYRITYGETGGNSPVQEFTVPLQPPTATISGLKPGVDYTITGYAVTWAWNDHELMTPISINYRT
notes: Del 1-8
B37: 3′D3 PR4 (designed binder)
chain: EVVAATPTSLLISWRHPHFPTRYYRITYGETGGNSPVQEFTVPLQPPTATISGLKPGVDYTITGYAVTPGPGDRELITPISINYRT
notes: Del 1-8

T1 sequence (P35968 20-764 limits assumed, change not shown, form in doubt): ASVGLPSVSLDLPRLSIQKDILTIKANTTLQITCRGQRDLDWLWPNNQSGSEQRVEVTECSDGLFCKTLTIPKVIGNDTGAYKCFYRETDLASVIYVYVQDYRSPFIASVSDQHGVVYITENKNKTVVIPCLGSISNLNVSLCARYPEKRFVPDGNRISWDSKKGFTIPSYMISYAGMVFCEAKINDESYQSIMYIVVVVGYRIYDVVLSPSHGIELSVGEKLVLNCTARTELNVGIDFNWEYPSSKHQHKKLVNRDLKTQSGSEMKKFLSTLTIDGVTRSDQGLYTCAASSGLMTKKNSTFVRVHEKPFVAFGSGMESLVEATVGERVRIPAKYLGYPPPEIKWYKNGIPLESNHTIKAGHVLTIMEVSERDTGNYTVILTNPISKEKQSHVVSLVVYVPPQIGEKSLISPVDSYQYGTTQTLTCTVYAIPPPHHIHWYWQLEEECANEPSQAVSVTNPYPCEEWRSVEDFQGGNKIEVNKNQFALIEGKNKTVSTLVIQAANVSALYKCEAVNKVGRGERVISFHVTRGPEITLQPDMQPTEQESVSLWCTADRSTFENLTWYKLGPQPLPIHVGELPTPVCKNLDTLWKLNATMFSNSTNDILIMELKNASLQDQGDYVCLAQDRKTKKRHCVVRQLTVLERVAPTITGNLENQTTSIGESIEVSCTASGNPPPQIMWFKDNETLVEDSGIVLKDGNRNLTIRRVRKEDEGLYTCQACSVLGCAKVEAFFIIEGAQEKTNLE

The assay has as its target T1, human vascular endothelial growth factor receptor-2 Fc chimera (KDR-Fc) (human, UniProt P35968 20-764).
T1 construct: range 1-764; also called human VEGFR-2; VEGF-R2-Fc; not shown: human IgG1 Fc
Nature of the assay: radioactive equilibrium binding, 1 nM KDR-Fc. The essentials:
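³⁵S-Met-labeled fibronectin-scaffold binders, made by reticulocyte lysate translation (30° C, 1 h) and Flag-purified, were held at 0.2 or 0.5 nM and incubated with 0–200 nM VEGF-R2-Fc for 1 h at 30° C in buffer B. Complexes were captured on Protein A magnetic beads, washed, KOH-eluted and counted.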
On to B1, for which the “Binding to 1 nM KDR, %” value worked out at 32%. With B2 the figure was 42%; with B3, 15%. For B4 the value was 27%. With B5, the “Binding to 1 nM KDR, %” value is 19%. Take B6: the “Binding to 1 nM KDR, %” value was found to be 31%. On to B7, for which the “Binding to 1 nM KDR, %” value turned out to be 19%. In the case of B8, the “Binding to 1 nM KDR, %” value worked out at 15%. With B9 the figure was 33%; with B10, 30%. With B11 the figure was 32%; with B12, 19%. Regarding B13, the “Binding to 1 nM KDR, %” value was 17%. Consider B14, for which the “Binding to 1 nM KDR, %” value is 37%. With B15, the “Binding to 1 nM KDR, %” value turned out to be 37%.

As to B16, the “Binding to 1 nM KDR, %” value was determined as 24%.

Turning to B17, the “Binding to 1 nM KDR, %” value turned out to be 23%. As to B18, the “Binding to 1 nM KDR, %” value is 36%. With B19 the figure was 24%. In the case of B20, the “Binding to 1 nM KDR, %” value was 16%. As to B21, the “Binding to 1 nM KDR, %” value is 17%. B22: the “Binding to 1 nM KDR, %” value stood at 39%. For B23 the value was 19%; for B24, 27%. For B25 the value was 31%. As for B26, the “Binding to 1 nM KDR, %” value was determined as 44%. B27: the “Binding to 1 nM KDR, %” value was found to be 30%.

For B28, the “Binding to 1 nM KDR, %” value stood at 41%.

With B29, the “Binding to 1 nM KDR, %” value came out at 15%.

In the case of B30, the “Binding to 1 nM KDR, %” value was 22%. Turning to B31, the “Binding to 1 nM KDR, %” value is 29%. For B32 the value was 16%; for B33, 20%. For B34 the value was 14%; for B35, 18%; for B36, 14%. Take B37: the “Binding to 1 nM KDR, %” value stood at 42%.

These data come from US20140179896A1 (published 2014).
